This experiment has as its target Myc transcription factor (UniProt P01106). The experiment can be described thus: cell-based or functional assay.
Chain of UniProt P01106 (P01106 16-454 limits assumed): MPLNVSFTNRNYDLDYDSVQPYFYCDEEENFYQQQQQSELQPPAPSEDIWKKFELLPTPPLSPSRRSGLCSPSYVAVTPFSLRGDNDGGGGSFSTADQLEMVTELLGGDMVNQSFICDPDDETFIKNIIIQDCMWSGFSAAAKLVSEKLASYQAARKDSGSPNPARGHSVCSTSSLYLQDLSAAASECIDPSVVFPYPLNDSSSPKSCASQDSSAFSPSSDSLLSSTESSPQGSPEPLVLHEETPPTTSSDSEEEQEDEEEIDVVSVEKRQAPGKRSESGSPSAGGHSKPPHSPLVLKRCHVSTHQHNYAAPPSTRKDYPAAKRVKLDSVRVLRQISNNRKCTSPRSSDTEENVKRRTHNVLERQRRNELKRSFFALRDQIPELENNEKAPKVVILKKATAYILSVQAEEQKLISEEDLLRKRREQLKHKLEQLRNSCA

Chain of HTLV-1 p30^II (HA) (P0C214 whole entry): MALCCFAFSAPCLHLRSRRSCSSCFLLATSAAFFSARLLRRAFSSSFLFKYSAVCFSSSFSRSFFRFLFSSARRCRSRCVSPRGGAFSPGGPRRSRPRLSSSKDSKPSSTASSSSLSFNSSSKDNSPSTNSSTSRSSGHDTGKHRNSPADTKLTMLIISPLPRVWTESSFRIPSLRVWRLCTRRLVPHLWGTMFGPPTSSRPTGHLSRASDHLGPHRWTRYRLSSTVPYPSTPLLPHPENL

For the substance HTLV-1 p30^II (HA), the trans-activation from the synthetic M4-tk-luc promoter (luciferase reporter, four tandem E-boxes) worked out at 13 fold and the trans-activation from the synthetic M4-tk-luc promoter (luciferase reporter, four tandem E-boxes), higher p30^II concentrations was in the range of 5 to 7 fold.
